{
  "source": "patent US20260125455A1",
  "key": {"[1]": {"molecular_target": "human C5b6 complex (human) (UniProt P01031)", "assay": "ELISA, C5b6-coated wells"}, "[2]": {"molecular_target": "human C5b6 complex (human) (UniProt P01031)", "assay": "ELISA, C5b6-coated wells, purified antibody"}, "[3]": {"molecular_target": "human C5b6 complex (human) (UniProt P01031)", "assay": "ELISA, C5b6-coated wells, large-scale purified antibody"}},
  "data": [
    {"binder": "MoC601 HuG4K (chimeric C601 antibody) (antibody, human IgG4 S228P, kappa, V domains shown) VH: QVQLQQSGAELVKPGASVKISCKASGYAFSDYWMNWVKQRPGKGLEWIGQIYPGDDDTNYNGKFKGKATLTADKSSSTAYMQLSSLTSEDSAVYFCAREGYYGYTYVEYFDVWGTGTTVTVSS VL: QIVLTQSPAIMSVSPGEKVTLTCSASSSVSYMHWYQQKSGTSPKRWIYDTSKLASGVPARFSGSGSGTSYSLTISSMEAEDAATYYCQQWTSNPLTFGAGTKLELRR", "values": [
      {"measurement": "EC50", "setting": "[1]", "value": 0.09, "unit": "nM"},
      {"measurement": "EC50", "setting": "[2]", "value": 0.09, "unit": "nM"}
    ]},
    {"binder": "C601HOKC4 HuG4K (antibody, human IgG4 S228P, kappa, V domains shown) VH: QVQLVQSGAEVKKPGESLKISCKASGYAFSDYWINWVRQMPGKGLEWMGQIYPGDDDTNYNPSFQGQATLSADKSISTAYLQWSSLKASDTAMYYCAREGYYGYTYVEYFDVWGTGTTVTVSS VL: QIVLTQSPATLSLSPGERATLSCRASSSVSYLHWYQQKPGQSPRLWIYDTSKRATGIPARFSGSGSGTDYTLTISSLEPEDFAVYYCQQWTSNPLTFGQGTKLEIKR", "values": [
      {"measurement": "EC50", "setting": "[3]", "value": 0.11, "unit": "nM"}
    ]}
  ]
}
